Data from article PMC12245071.

Biological target: Bacteriophage T4 capsid, major capsid protein gp23* (bacteriophage T4)
Assay: co-sedimentation

Substance: Soc-SpyCatcher displayed on the T4 phage capsid (T4-SpyCatcher phage) (designed binder)
- copies per capsid (copies per capsid): 205

Substance: M2e-Hoc fusion (influenza M2e peptide on the tip of the T4 Hoc fiber)
- copies per capsid (copies per capsid): 90
